Source: patent US7329728

Key:
Experiment in all cases: cell-based or functional assay
Cf2-PBD-VP64 (human) = Cf2-PBD-VP64 (human) (UniProt P06401)
ER-KRAB (mouse; human) = ER-KRAB (mouse; human) (UniProt P19785)
ER-VP64 (mouse) = ER-VP64 (mouse) (UniProt P19785)
ER-VP64 (mouse), sequence (P19785 282-599 G525R): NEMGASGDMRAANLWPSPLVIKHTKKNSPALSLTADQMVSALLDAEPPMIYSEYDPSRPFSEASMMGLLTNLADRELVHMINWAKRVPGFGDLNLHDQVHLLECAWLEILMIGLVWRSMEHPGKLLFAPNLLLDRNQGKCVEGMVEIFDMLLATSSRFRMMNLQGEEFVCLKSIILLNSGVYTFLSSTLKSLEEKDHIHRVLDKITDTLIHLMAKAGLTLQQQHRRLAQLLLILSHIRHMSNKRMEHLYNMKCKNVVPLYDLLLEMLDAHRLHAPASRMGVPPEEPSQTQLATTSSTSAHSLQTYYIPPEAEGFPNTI

C7-PBD-VP64, sequence (P06401 640-914): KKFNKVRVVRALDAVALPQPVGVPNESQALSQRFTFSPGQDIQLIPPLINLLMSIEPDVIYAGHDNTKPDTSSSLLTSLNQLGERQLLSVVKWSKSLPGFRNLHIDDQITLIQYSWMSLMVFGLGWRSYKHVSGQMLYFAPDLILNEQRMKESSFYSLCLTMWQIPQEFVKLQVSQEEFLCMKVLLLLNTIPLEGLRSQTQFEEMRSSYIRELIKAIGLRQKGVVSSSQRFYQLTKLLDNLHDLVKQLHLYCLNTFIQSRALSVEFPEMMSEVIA
Cf2-PBD-VP64 (human), sequence (P06401 640-914): as above
ER-KRAB (mouse; human), sequence (P19785 other isoform, or with tags, fused parts or gaps): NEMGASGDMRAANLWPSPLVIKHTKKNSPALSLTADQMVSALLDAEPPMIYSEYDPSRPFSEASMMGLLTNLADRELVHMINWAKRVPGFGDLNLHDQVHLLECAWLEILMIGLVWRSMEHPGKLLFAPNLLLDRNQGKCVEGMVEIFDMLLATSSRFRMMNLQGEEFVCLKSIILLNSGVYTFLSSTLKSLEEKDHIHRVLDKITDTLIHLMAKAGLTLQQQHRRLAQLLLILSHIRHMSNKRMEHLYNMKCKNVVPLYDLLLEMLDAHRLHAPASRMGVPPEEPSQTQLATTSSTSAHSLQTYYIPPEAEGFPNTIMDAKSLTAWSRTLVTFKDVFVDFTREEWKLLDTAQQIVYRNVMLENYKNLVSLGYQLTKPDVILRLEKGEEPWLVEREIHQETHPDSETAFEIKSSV

Substance	ligand-dependent change in transcription of a C7-Cf2 TATA luciferase reporter (Cf2-PBD-VP64 (human)) [fold]	tamoxifen-dependent repression of the erbB-2 promoter (luciferase) (ER-KRAB (mouse; human)) [fold]	erbB-2 promoter luciferase activity in HeLa cells, on addition of Tamoxifen (ER-VP64 (mouse)) [fold]
C7-PBD-VP64 (from UniProt P06401 640-914)	2		
E2C-ER (from UniProt P19785 282-599)		2.9	3
